According to US20210292385A1 (WNTRX PHARMACEUTICALS, published 2021):
One block for each molecule: values may come before it. Bridge positions count the residues as written; N and C are the ends. Square brackets hold non-standard residues; d marks the D form. 2Nal = N[C@@H](Cc1ccc2ccccc2c1)C(=O)O; S5 = C=CCCC[C@](C)(N)C(=O)O; βAla = NCCC(=O)O

Tests used:
[1] = biological target: β-catenin protein (ALPHA screening assay) (UniProt P35222); experiment: ALPHA screen: biotinylated peptide on streptavidin donor beads, β-catenin on protein A acceptor beads via anti-β-catenin antibody
[2] = biological target: T1, β-catenin in cells (LEF/TCF-bla HCT-116 reporter cells; Colo320DM cells) (UniProt P35222 2-781, limits assumed); experiment: cell-based or functional assay
T1 sequence (looked up): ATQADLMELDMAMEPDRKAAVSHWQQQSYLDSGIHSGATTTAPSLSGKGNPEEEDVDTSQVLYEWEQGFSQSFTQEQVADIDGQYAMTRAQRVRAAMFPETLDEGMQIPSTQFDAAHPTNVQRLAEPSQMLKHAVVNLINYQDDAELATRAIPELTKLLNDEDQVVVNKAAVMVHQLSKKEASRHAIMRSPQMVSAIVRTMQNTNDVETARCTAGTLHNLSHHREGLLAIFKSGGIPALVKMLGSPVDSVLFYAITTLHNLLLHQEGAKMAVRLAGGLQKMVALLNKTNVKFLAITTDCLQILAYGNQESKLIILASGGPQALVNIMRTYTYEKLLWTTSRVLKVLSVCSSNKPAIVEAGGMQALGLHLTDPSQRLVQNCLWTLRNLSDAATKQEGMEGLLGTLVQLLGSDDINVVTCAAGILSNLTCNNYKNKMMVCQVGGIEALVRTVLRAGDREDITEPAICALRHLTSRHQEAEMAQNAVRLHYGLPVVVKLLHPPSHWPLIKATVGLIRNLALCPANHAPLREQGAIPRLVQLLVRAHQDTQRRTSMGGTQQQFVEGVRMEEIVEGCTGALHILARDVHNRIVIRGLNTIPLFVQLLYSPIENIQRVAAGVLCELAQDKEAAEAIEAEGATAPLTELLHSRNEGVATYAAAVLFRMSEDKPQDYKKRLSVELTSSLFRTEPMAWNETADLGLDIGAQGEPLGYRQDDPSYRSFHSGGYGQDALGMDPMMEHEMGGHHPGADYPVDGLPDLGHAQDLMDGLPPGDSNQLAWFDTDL

[3] = biological target: T1, β-catenin in cells (LEF/TCF-bla HCT-116 …); experiment: cell-based or functional assay; remark: listed apart in the source
[4] = biological target: T2, β-catenin protein (ALPHA screening assay) (UniProt P35222 1-781, limits assumed); experiment: ALPHA screen: biotinylated peptide on streptavidin donor beads, β-catenin on protein A acceptor beads via anti-β-catenin antibody
T2 sequence (looked up): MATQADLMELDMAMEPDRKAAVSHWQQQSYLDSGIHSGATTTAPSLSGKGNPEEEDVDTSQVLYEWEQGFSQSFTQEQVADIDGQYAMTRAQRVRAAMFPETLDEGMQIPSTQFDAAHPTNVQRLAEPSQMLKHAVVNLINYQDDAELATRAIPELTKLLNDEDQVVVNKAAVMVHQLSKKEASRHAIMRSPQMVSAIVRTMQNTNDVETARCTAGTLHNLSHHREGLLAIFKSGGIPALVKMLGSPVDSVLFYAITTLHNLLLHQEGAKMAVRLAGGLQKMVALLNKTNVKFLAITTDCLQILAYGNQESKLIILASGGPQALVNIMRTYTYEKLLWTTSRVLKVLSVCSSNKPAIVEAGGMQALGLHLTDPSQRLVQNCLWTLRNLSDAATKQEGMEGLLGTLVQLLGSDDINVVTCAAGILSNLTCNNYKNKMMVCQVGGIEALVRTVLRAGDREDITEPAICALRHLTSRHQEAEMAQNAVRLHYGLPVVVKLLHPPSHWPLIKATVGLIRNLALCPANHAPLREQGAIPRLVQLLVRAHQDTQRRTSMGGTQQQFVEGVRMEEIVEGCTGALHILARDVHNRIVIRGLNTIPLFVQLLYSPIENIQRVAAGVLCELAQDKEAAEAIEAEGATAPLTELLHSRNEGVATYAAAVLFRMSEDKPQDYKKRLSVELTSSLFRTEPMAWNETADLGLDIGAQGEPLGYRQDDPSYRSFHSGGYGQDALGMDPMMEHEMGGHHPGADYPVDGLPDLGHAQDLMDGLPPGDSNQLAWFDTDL

[5] = biological target: T3, Histidine-tagged β-catenin (HTRF assay) (UniProt P35222 1-781, limits assumed); experiment: HTRF assay (Cisbio): biotin-labeled peptide, His-tagged β-catenin, Eu-labeled anti-His antibody and SA-XL665
T3 construct: also called His-tag protein; not shown: histidine tag
T3 sequence (looked up): T2 sequence (looked up)

Molecule: full-length HD2 domain of human BCL9 protein (peptide)
Kd [1]: 0.02 µM
signal versus background ratio [1]: 180 fold

B2: WX-020, biotinylated (ALPHA screen) (peptide)
peptide: Ac-LR[S5]IQR[S5]L-NH2
modifications: staple 3-7; also: biotinylated with a PEG linker, site not given here
notes: The general description of the ALPHA assay says that a biotinylated polypeptide is used
Kd [4]: 0.08 µM

B4: WX-021 (peptide)
peptide: Ac-LR[S5]IQR[S5]L[2Nal][βAla][βAla]-NH2
modifications: staple 3-7
SMILES: CC[C@H](C)[C@@H]1NC(=O)[C@@](C)(NC(=O)[C@H](CCCNC(=N)N)NC(=O)[C@H](CC(C)C)NC(C)=O)CCCC=CCCC[C@@](C)(C(=O)N[C@@H](CC(C)C)C(=O)N[C@@H](Cc2ccc3ccccc3c2)C(=O)NCCC(=O)NCCC(N)=O)NC(=O)[C@H](CCCNC(=N)N)NC(=O)[C@H](CCC(N)=O)NC1=O
IC50, GeneBLAzer beta-lactamase reporter assay, LEF/TCF-bla HCT-116 cells [2]: 0.764 µM

Second part, led by results:

IC50, cell-based Wnt transcription inhibition assay, acetate salt form of WX-024 [2]: 0.292 µM
IC50, cell-based Wnt transcription inhibition assay, hydrochloric salt of WX-024 [2]: 0.313 µM
IC50, GeneBLAzer beta-lactamase reporter assay, LEF-TCF-bla HCT116 cells [3]: 0.191 µM
Molecule: Ac-LQTLR[S5]IQR[S5]L[2Nal]-NH2 (staple 6-10; also: tested as trifluoroacetic, acetate and hydrochloric salts) [WX-024]

IC50, Wnt transcription assay (GeneBLAzer reporter, procedures of Example 4.1) [2]: 1.58 µM
B1: WX-020 (peptide)
peptide: Ac-LR[S5]IQR[S5]L-NH2
modifications: staple 3-7
SMILES: CC[C@H](C)[C@@H]1NC(=O)[C@@](C)(NC(=O)[C@H](CCCNC(=N)N)NC(=O)[C@H](CC(C)C)NC(C)=O)CCCC=CCCC[C@@](C)(C(=O)N[C@@H](CC(C)C)C(N)=O)NC(=O)[C@H](CCCNC(=N)N)NC(=O)[C@H](CCC(N)=O)NC1=O
IC50, CellTiterGlo cell viability assay, Colo320DM cells [2]: 12.4 µM

Kd [5]: 0.00421 µM
B3: WX-024 (conjugated with biotin) (peptide)
peptide: Ac-LQTLR[S5]IQR[S5]L[2Nal]-NH2
modifications: staple 6-10; also: coupled to biotin (site not given here)
notes: also called biotinylated WX-024; BCL9 peptide labeled with biotin
